Test results from article PMC9526450 (Nature structural & molecular biology, 2022).

Target: T1, Strep-tagged WT UBE2O from Expi293F cells (human, UniProt Q9C0C9 1-1292)
T1 sequence (looked up): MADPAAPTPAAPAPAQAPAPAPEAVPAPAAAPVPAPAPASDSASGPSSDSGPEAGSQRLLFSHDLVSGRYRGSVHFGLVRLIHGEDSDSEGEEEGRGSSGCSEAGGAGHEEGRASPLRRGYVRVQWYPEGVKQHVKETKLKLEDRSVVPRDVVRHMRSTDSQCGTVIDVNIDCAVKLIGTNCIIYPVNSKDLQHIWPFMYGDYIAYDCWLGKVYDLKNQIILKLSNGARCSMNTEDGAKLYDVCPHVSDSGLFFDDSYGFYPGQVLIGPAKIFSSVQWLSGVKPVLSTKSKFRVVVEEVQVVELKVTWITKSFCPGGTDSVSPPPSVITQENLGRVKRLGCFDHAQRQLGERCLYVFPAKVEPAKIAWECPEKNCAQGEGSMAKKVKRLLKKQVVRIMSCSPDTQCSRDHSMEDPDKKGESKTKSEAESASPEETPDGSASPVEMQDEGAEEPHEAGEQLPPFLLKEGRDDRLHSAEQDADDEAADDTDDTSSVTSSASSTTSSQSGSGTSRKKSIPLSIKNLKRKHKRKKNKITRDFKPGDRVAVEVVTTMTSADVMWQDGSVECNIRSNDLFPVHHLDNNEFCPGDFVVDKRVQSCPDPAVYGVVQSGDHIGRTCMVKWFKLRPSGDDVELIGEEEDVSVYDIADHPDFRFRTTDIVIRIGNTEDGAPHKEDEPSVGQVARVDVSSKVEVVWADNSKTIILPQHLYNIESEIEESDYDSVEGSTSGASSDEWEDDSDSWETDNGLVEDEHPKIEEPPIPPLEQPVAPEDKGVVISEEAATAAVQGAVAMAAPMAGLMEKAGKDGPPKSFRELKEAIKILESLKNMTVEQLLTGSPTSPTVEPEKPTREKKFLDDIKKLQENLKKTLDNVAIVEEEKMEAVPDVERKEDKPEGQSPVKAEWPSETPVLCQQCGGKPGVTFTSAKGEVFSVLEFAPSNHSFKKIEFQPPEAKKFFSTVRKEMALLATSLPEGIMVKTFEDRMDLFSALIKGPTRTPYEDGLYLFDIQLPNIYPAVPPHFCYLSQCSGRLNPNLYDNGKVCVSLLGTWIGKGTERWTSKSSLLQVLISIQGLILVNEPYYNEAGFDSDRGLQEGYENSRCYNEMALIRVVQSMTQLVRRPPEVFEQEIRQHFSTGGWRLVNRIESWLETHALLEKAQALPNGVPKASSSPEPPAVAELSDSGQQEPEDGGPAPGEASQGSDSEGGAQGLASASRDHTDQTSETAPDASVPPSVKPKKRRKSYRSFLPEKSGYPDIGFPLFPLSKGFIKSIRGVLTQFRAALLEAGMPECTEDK
Test: SEC

binding result: binds
B1: purified Strep-tagged NAP1L1 (natural protein, human, UniProt P55209 1-391, looked up)
chain: MADIDNKEQSELDQDLDDVEEVEEEETGEETKLKARQLTVQMMQNPQILAALQERLDGLVETPTGYIESLPRVVKRRVNALKNLQVKCAQIEAKFYEEVHDLERKYAVLYQPLFDKRFEIINAIYEPTEEECEWKPDEEDEISEELKEKAKIEDEKKDEEKEDPKGIPEFWLTVFKNVDLLSDMVQEHDEPILKHLKDIKVKFSDAGQPMSFVLEFHFEPNEYFTNEVLTKTYRMRSEPDDSDPFSFDGPEIMGCTGCQIDWKKGKNVTLKTIKKKQKHKGRGTVRTVTKTVSNDSFFNFFAPPEVPESGDLDDDAEAILAADFEIGHFLRERIIPRSVLYFTGEAIEDDDDDYDEEGEEADEEGEEEGDEENDPDYDPKKDQNPAECKQQ
